Results as given in patent publication US20120172295A1 (INDIANA UNIVERSITY RESEARCH AND TECHNOLOGY, published 2012).
Positions of bridges follow the written chain, without caps; N, C: chain ends. Non-standard residues stand in square brackets, D forms with d. No end group written: not given here. *: point of attachment. Isobutyryl(2-imidazol-4-yl) = CC(C)(C(=O)*)c1c[nH]cn1; PEG = not defined here; Aib = CC(C)(N)C(=O)O

B1: Chimera AIB2, Cys29 (SEQ ID NO: 487), parent w/o PEG (peptide)
peptide: H[Aib]QGTFTSDYSKYLDEQAAKEFIAWLMNC-NH2
modifications: N-terminus assumed
SMILES: CC[C@H](C)[C@H](NC(=O)[C@H](Cc1ccccc1)NC(=O)[C@H](CCC(=O)O)NC(=O)[C@H](CCCCN)NC(=O)[C@H](C)NC(=O)[C@H](C)NC(=O)[C@H](CCC(N)=O)NC(=O)[C@H](CCC(=O)O)NC(=O)[C@H](CC(=O)O)NC(=O)[C@H](CC(C)C)NC(=O)[C@H](Cc1ccc(O)cc1)NC(=O)[C@H](CCCCN)NC(=O)[C@H](CO)NC(=O)[C@H](Cc1ccc(O)cc1)NC(=O)[C@H](CC(=O)O)NC(=O)[C@H](CO)NC(=O)[C@@H](NC(=O)[C@H](Cc1ccccc1)NC(=O)[C@@H](NC(=O)CNC(=O)[C@H](CCC(N)=O)NC(=O)C(C)(C)NC(=O)[C@@H](N)Cc1c[nH]cn1)[C@@H](C)O)[C@@H](C)O)C(=O)N[C@@H](C)C(=O)N[C@@H](Cc1c[nH]c2ccccc12)C(=O)N[C@@H](CC(C)C)C(=O)N[C@@H](CCSC)C(=O)N[C@@H](CC(N)=O)C(=O)N[C@@H](CS)C(N)=O
B2: Chimera AIB2, Gly29,30 Cys40 Cex (SEQ ID NO: 488), parent w/o PEG (peptide)
peptide: H[Aib]QGTFTSDYSKYLDEQAAKEFIAWLMNGGPSSGAPPPSC-NH2
modifications: N-terminus assumed
SMILES: CC[C@H](C)[C@H](NC(=O)[C@H](Cc1ccccc1)NC(=O)[C@H](CCC(=O)O)NC(=O)[C@H](CCCCN)NC(=O)[C@H](C)NC(=O)[C@H](C)NC(=O)[C@H](CCC(N)=O)NC(=O)[C@H](CCC(=O)O)NC(=O)[C@H](CC(=O)O)NC(=O)[C@H](CC(C)C)NC(=O)[C@H](Cc1ccc(O)cc1)NC(=O)[C@H](CCCCN)NC(=O)[C@H](CO)NC(=O)[C@H](Cc1ccc(O)cc1)NC(=O)[C@H](CC(=O)O)NC(=O)[C@H](CO)NC(=O)[C@@H](NC(=O)[C@H](Cc1ccccc1)NC(=O)[C@@H](NC(=O)CNC(=O)[C@H](CCC(N)=O)NC(=O)C(C)(C)NC(=O)[C@@H](N)Cc1c[nH]cn1)[C@@H](C)O)[C@@H](C)O)C(=O)N[C@@H](C)C(=O)N[C@@H](Cc1c[nH]c2ccccc12)C(=O)N[C@@H](CC(C)C)C(=O)N[C@@H](CCSC)C(=O)N[C@@H](CC(N)=O)C(=O)NCC(=O)NCC(=O)N1CCC[C@H]1C(=O)N[C@@H](CO)C(=O)N[C@@H](CO)C(=O)NCC(=O)N[C@@H](C)C(=O)N1CCC[C@H]1C(=O)N1CCC[C@H]1C(=O)N1CCC[C@H]1C(=O)N[C@@H](CO)C(=O)N[C@@H](CS)C(N)=O
B3: Chimera AIB2, Gly29,30 Cys40 Cex Lactam (SEQ ID NO: 489), parent w/o PEG (peptide)
peptide: H[Aib]QGTFTSDYSKYLDEQAAKEFIAWLMNGGPSSGAPPPSC-NH2
modifications: lactam 16-20; N-terminus assumed
SMILES: CC[C@H](C)[C@H](NC(=O)[C@H](Cc1ccccc1)NC(=O)[C@H](CCC(=O)O)NC(=O)[C@@H]1CCCCNC(=O)CC[C@H](NC(=O)[C@H](CC(=O)O)NC(=O)[C@H](CC(C)C)NC(=O)[C@H](Cc2ccc(O)cc2)NC(=O)[C@H](CCCCN)NC(=O)[C@H](CO)NC(=O)[C@H](Cc2ccc(O)cc2)NC(=O)[C@H](CC(=O)O)NC(=O)[C@H](CO)NC(=O)[C@@H](NC(=O)[C@H](Cc2ccccc2)NC(=O)[C@@H](NC(=O)CNC(=O)[C@H](CCC(N)=O)NC(=O)C(C)(C)NC(=O)[C@@H](N)Cc2c[nH]cn2)[C@@H](C)O)[C@@H](C)O)C(=O)N[C@@H](CCC(N)=O)C(=O)N[C@@H](C)C(=O)N[C@@H](C)C(=O)N1)C(=O)N[C@@H](C)C(=O)N[C@@H](Cc1c[nH]c2ccccc12)C(=O)N[C@@H](CC(C)C)C(=O)N[C@@H](CCSC)C(=O)N[C@@H](CC(N)=O)C(=O)NCC(=O)NCC(=O)N1CCC[C@H]1C(=O)N[C@@H](CO)C(=O)N[C@@H](CO)C(=O)NCC(=O)N[C@@H](C)C(=O)N1CCC[C@H]1C(=O)N1CCC[C@H]1C(=O)N1CCC[C@H]1C(=O)N[C@@H](CO)C(=O)N[C@@H](CS)C(N)=O
B4: Chimera AIB2, Gly29,30 Cys24 Cex (SEQ ID NO: 490), parent w/o PEG (peptide)
peptide: H[Aib]QGTFTSDYSKYLDEQAAKEFICWLMNGGPSSGAPPPS-NH2
modifications: N-terminus assumed
SMILES: CC[C@H](C)[C@H](NC(=O)[C@H](Cc1ccccc1)NC(=O)[C@H](CCC(=O)O)NC(=O)[C@H](CCCCN)NC(=O)[C@H](C)NC(=O)[C@H](C)NC(=O)[C@H](CCC(N)=O)NC(=O)[C@H](CCC(=O)O)NC(=O)[C@H](CC(=O)O)NC(=O)[C@H](CC(C)C)NC(=O)[C@H](Cc1ccc(O)cc1)NC(=O)[C@H](CCCCN)NC(=O)[C@H](CO)NC(=O)[C@H](Cc1ccc(O)cc1)NC(=O)[C@H](CC(=O)O)NC(=O)[C@H](CO)NC(=O)[C@@H](NC(=O)[C@H](Cc1ccccc1)NC(=O)[C@@H](NC(=O)CNC(=O)[C@H](CCC(N)=O)NC(=O)C(C)(C)NC(=O)[C@@H](N)Cc1c[nH]cn1)[C@@H](C)O)[C@@H](C)O)C(=O)N[C@@H](CS)C(=O)N[C@@H](Cc1c[nH]c2ccccc12)C(=O)N[C@@H](CC(C)C)C(=O)N[C@@H](CCSC)C(=O)N[C@@H](CC(N)=O)C(=O)NCC(=O)NCC(=O)N1CCC[C@H]1C(=O)N[C@@H](CO)C(=O)N[C@@H](CO)C(=O)NCC(=O)N[C@@H](C)C(=O)N1CCC[C@H]1C(=O)N1CCC[C@H]1C(=O)N1CCC[C@H]1C(=O)N[C@@H](CO)C(N)=O
B5: Chimera AIB2, Gly29,30 Cys24 Cex Lactam (SEQ ID NO: 491), parent w/o PEG (peptide)
peptide: H[Aib]QGTFTSDYSKYLDEQAAKEFICWLMNGGPSSGAPPPS-NH2
modifications: lactam 16-20; N-terminus assumed
SMILES: CC[C@H](C)[C@H](NC(=O)[C@H](Cc1ccccc1)NC(=O)[C@H](CCC(=O)O)NC(=O)[C@@H]1CCCCNC(=O)CC[C@H](NC(=O)[C@H](CC(=O)O)NC(=O)[C@H](CC(C)C)NC(=O)[C@H](Cc2ccc(O)cc2)NC(=O)[C@H](CCCCN)NC(=O)[C@H](CO)NC(=O)[C@H](Cc2ccc(O)cc2)NC(=O)[C@H](CC(=O)O)NC(=O)[C@H](CO)NC(=O)[C@@H](NC(=O)[C@H](Cc2ccccc2)NC(=O)[C@@H](NC(=O)CNC(=O)[C@H](CCC(N)=O)NC(=O)C(C)(C)NC(=O)[C@@H](N)Cc2c[nH]cn2)[C@@H](C)O)[C@@H](C)O)C(=O)N[C@@H](CCC(N)=O)C(=O)N[C@@H](C)C(=O)N[C@@H](C)C(=O)N1)C(=O)N[C@@H](CS)C(=O)N[C@@H](Cc1c[nH]c2ccccc12)C(=O)N[C@@H](CC(C)C)C(=O)N[C@@H](CCSC)C(=O)N[C@@H](CC(N)=O)C(=O)NCC(=O)NCC(=O)N1CCC[C@H]1C(=O)N[C@@H](CO)C(=O)N[C@@H](CO)C(=O)NCC(=O)N[C@@H](C)C(=O)N1CCC[C@H]1C(=O)N1CCC[C@H]1C(=O)N1CCC[C@H]1C(=O)N[C@@H](CO)C(N)=O
B6: Chimera DMIA1, Cys24 Lactam (SEQ ID NO: 505), parent w/o PEG (peptide)
peptide: [Isobutyryl(2-imidazol-4-yl)]SQGTFTSDYSKYLDEQAAKEFICWLMNT-NH2
modifications: lactam 16-20
SMILES: CC[C@H](C)[C@H](NC(=O)[C@H](Cc1ccccc1)NC(=O)[C@H](CCC(=O)O)NC(=O)[C@@H]1CCCCNC(=O)CC[C@H](NC(=O)[C@H](CC(=O)O)NC(=O)[C@H](CC(C)C)NC(=O)[C@H](Cc2ccc(O)cc2)NC(=O)[C@H](CCCCN)NC(=O)[C@H](CO)NC(=O)[C@H](Cc2ccc(O)cc2)NC(=O)[C@H](CC(=O)O)NC(=O)[C@H](CO)NC(=O)[C@@H](NC(=O)[C@H](Cc2ccccc2)NC(=O)[C@@H](NC(=O)CNC(=O)[C@H](CCC(N)=O)NC(=O)[C@H](CO)NC(=O)C(C)(C)c2c[nH]cn2)[C@@H](C)O)[C@@H](C)O)C(=O)N[C@@H](CCC(N)=O)C(=O)N[C@@H](C)C(=O)N[C@@H](C)C(=O)N1)C(=O)N[C@@H](CS)C(=O)N[C@@H](Cc1c[nH]c2ccccc12)C(=O)N[C@@H](CC(C)C)C(=O)N[C@@H](CCSC)C(=O)N[C@@H](CC(N)=O)C(=O)N[C@H](C(N)=O)[C@@H](C)O

Molecular target: GLP-1 receptor (UniProt P43220 24-463, limits assumed)
Test: cell-based or functional assay

| Binder | % Potency Relative to Native [%] |
| --- | --- |
| B1 | 125 |
| H[Aib]QGTFTSDYSKYLDEQAAKEFIAWLMNC(PEG)-NH2 (reading uncertain) [Chimera AIB2, Cys29 (SEQ ID NO: 487), parent w/PEG] | 54.3 |
| B2 | 359 |
| H[Aib]QGTFTSDYSKYLDEQAAKEFIAWLMNGGPSSGAPPPSC(PEG)-NH2 (reading uncertain) [Chimera AIB2, Gly29,30 Cys40 Cex (SEQ ID NO: 488), parent w/PEG] | 68.8 |
| B3 | 170 |
| H[Aib]QGTFTSDYSKYLDEQAAKEFIAWLMNGGPSSGAPPPSC(PEG)-NH2 (lactam 16-20; reading uncertain) [Chimera AIB2, Gly29,30 Cys40 Cex Lactam (SEQ ID NO: 489), parent w/PEG] | 63.6 |
| B4 | 458 |
| H[Aib]QGTFTSDYSKYLDEQAAKEFIC(PEG)WLMNGGPSSGAPPPS-NH2 (reading uncertain) [Chimera AIB2, Gly29,30 Cys24 Cex (SEQ ID NO: 490), parent w/PEG] | 95.4 |
| B5 | 382 |
| H[Aib]QGTFTSDYSKYLDEQAAKEFIC(PEG)WLMNGGPSSGAPPPS-NH2 (lactam 16-20; reading uncertain) [Chimera AIB2, Gly29,30 Cys24 Cex Lactam (SEQ ID NO: 491), parent w/PEG] | 96.4 |
| H[Aib]QGTFTSDYSKYLDERAAKDFVC(PEG)WLMNT-NH2 (reading uncertain) [E16, K20AIB2, A18 Cys24 (SEQ ID NO: 492), parent w/PEG] | 73.5 |
| H[Aib]QGTFTSDYSKYLDERAAKDFVC(PEG)WLMNGGPSSGAPPPS-NH2 (not fully specified; reading uncertain) [E16, K20AIB2, A18 Gly29,30 Cys24 Cex (SEQ ID NO: 496), parent w/PEG] | 88.5 |
| B6 | 82.5 |
| [Isobutyryl(2-imidazol-4-yl)]SQGTFTSDYSKYLDEQAAKEFIC(PEG)WLMNT-NH2 (lactam 16-20; reading uncertain) [Chimera DMIA1, Cys24 Lactam (SEQ ID NO: 505), parent w/PEG] | 12.5 |

Molecular target: glucagon receptor (UniProt P47871 26-477, limits assumed)
Sequence (P47871 26-477 limits assumed): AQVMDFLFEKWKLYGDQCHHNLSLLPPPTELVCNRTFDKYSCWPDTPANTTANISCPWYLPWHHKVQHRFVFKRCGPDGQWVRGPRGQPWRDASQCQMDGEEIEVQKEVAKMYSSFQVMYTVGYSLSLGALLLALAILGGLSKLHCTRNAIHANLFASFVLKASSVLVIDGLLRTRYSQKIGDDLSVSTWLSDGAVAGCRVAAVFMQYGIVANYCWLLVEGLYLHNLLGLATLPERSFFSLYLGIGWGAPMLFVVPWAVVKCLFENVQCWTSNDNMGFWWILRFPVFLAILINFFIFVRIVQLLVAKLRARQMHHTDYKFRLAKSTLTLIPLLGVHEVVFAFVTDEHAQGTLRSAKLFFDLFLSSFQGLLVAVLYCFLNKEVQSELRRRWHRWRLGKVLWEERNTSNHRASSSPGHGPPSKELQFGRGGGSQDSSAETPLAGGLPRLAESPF
Test: cell-based or functional assay

| Binder | % Potency Relative to Native [%] |
| --- | --- |
| B1 | 20.1 |
| H[Aib]QGTFTSDYSKYLDEQAAKEFIAWLMNC(PEG)-NH2 (reading uncertain) [Chimera AIB2, Cys29 (SEQ ID NO: 487), parent w/PEG] | 5.6 |
| B2 | 2.2 |
| H[Aib]QGTFTSDYSKYLDEQAAKEFIAWLMNGGPSSGAPPPSC(PEG)-NH2 (reading uncertain) [Chimera AIB2, Gly29,30 Cys40 Cex (SEQ ID NO: 488), parent w/PEG] | 0.3 |
| B3 | 14.2 |
| H[Aib]QGTFTSDYSKYLDEQAAKEFIAWLMNGGPSSGAPPPSC(PEG)-NH2 (lactam 16-20; reading uncertain) [Chimera AIB2, Gly29,30 Cys40 Cex Lactam (SEQ ID NO: 489), parent w/PEG] | 3.2 |
| B4 | 2.5 |
| H[Aib]QGTFTSDYSKYLDEQAAKEFIC(PEG)WLMNGGPSSGAPPPS-NH2 (reading uncertain) [Chimera AIB2, Gly29,30 Cys24 Cex (SEQ ID NO: 490), parent w/PEG] | 0.2 |
| B5 | 25.2 |
| H[Aib]QGTFTSDYSKYLDEQAAKEFIC(PEG)WLMNGGPSSGAPPPS-NH2 (lactam 16-20; reading uncertain) [Chimera AIB2, Gly29,30 Cys24 Cex Lactam (SEQ ID NO: 491), parent w/PEG] | 1.4 |
| H[Aib]QGTFTSDYSKYLDERAAKDFVC(PEG)WLMNT-NH2 (reading uncertain) [E16, K20AIB2, A18 Cys24 (SEQ ID NO: 492), parent w/PEG] | 1.1 |
| H[Aib]QGTFTSDYSKYLDERAAKDFVC(PEG)WLMNGGPSSGAPPPS-NH2 (not fully specified; reading uncertain) [E16, K20AIB2, A18 Gly29,30 Cys24 Cex (SEQ ID NO: 496), parent w/PEG] | 0.1 |
| B6 | 161 |
| [Isobutyryl(2-imidazol-4-yl)]SQGTFTSDYSKYLDEQAAKEFIC(PEG)WLMNT-NH2 (lactam 16-20; reading uncertain) [Chimera DMIA1, Cys24 Lactam (SEQ ID NO: 505), parent w/PEG] | 19.1 |
